Results from the nanobody polyreactivity screen of Harvey et al. (2022).

Test: yeast display, Sf9 membrane polyspecificity reagent, FACS + sequencing; frameworks hold sequencing errors
Procedure, shortened: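 Galactose induction of a Saccharomyces cerevisiae BJ5465 synthetic nanobody display library ran 36–48 hours. The cells were then stained for 1 hour at 4 °C with 10% biotinylated, detergent-solubilized Sf9 membrane reagent, pulled down on streptavidin microbeads and FACS-sorted into low and high (top ~1%) gates on expression and reagent-binding fluorescence. Labels for polyreactivity follow the gate of origin.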

Sequence	polyreactivity (PSR sort gate)
QVQLVESGGGLVQAGGSLRLSCAASGIIFTGYAMGWYRQAPGKERELVAAISRSGGGTYYADSVKGRFTISRDNAKNTVYLQMNSLKPEDTAVDYCNRLRIAASYWQAYDYWGQGTQLTVSS	high polyreactivity
QVQLVESGGGLVQAGGSLRLSCAASGIIFTKYVMGWYRQAPGKERELVAAINTDGGSTRYADSVKGRFTISRDNAKNTVYLQMNSLKPEDTAVYYCAAVSSRRPGYEYYYWGQGTQVTVSS	high polyreactivity
QVQLVESGGGLVQAGGSLRLSCAASGIIFTVYAMGWYRQPPGTERELVAAITSSGGRTYYADSVKGRFTISRDNAKNTVYLQMNSLKPDDTAVYYCAARRPGYVRKDDYWGQGTQVTVSS	high polyreactivity
QVQLVESGGGLVQAGGSLRLSCAASGIIFTYAMGWYRQAPGKERELVAAIDWRGGRTYYADSVKGRFTISRDNAKNTVYLQMNSLKPEDTAVYYCAVGVLYAGYFYRYRYYYWGQGTQVTVSS	high polyreactivity
QVQLVESGGGLVQAGGSLRLSCAASGIIFTYSAMGWYRQAPGKERELVAAISRRGGTTYYADSVKGRFTISRDNAKNTVYLQMNSLKPEDTAVYYCAKKWGWFPVYYWGQGTQVTVSS	high polyreactivity
QVQLVESGGGLVQAGGSLRLSCAASGIIFTYYAMGWYRQAPGKERELVAAISVSGSSTYYADSVKGRFTISRDNAKNTVYLQMNSLKPEDTAVYYCAARYQWGTRGFGYWGQGTLVTVSS	high polyreactivity
QVQLVESGGGLVQAGGSLRLSCAASGIIFTYYAMGWYRQAPGKERELVARISSSGGRTYYADSVKGRFTISRDNAKNTVYLQMNSLKPEDTAVYYCNAVTTKSFHRYDYWGQGTQVTVSS	high polyreactivity
QVQLVESGGGLVQAGGSLRLSCAASGIIFVDYVMGWYRQAPGKERELVAAITYTGGSTYYADSVKGRFTISRDNAKNTVYLQMNSLKPEDTAVYYCAARRKHRFFPAYYYWGQGTQVTVSS	high polyreactivity
QVQLVESGGGLVQAGGSLRLSCAASGIIFVENAMGWYRQAPGKERELVASGDSTYYADSVKGRFTISRDNAKNTVYLQMNSLKPEDTAVYYCAVDHYSARLLARYDYWGQGTQVTVSS	low polyreactivity
QVQLVESGGGLVQAGGSLRLSCAASGIIFVKYAMGWYRQAPGKERELVAAINWRTGRTYYADSVKGRFTISRDNAKNTVYLQMNSLKPEDTAVYYCAADVGIVIRLGRTEESGYYWGQGTQVTVSS	low polyreactivity
QVQLVESGGGLVQAGGSLRLSCAASGIIFVKYVMGWYRQAPGKERELVAAISLGGGSTYYADSVKGRFTISRDNAKNTVYLQMNSLKPEDTAVYYCAAVRWTSRSRYDYWGQGTQVTVSS	high polyreactivity
QVQLVESGGGLVQAGGSLRLSCAASGIIFVKYVMGWYRQAPGKERELVAAITGTGRTNYADSVKGRFTISRDNAKNTVYLQMNSLKPEDTAVYYCNARQAGTRYKYGYYGRYYWGQGTQVSVSS	high polyreactivity
QVQLVESGGGLVQAGGSLRLSCAASGIIFVRYVMGWYRQAPGKERELVAAINWSGGSTYYAYSVKGRFTISRDNANNTVYLQMNSLKPEDTAVYYCAAGSARDDDYWGQGTQVPVSS	high polyreactivity
QVQLVESGGGLVQAGGSLRLSCAASGIIFVSYDMGWYRQAPGKERELVAAINRGGRTYYADSVKGRFTISRDNAKNTVYLQMNSLKPEDTAVYYCAAQFHFRPFSWTYDYWGQGTQVTVSS	high polyreactivity
QVQLVESGGGLVQAGGSLRLSCAASGIIFVTYAMGWNRQAPGKEREFVAGINWNGGSTYYADSVKGRFTISRDNAKNTVYLQMNSLKPEDTAVYYCNAENYRVRQRSSVKYDYWGQVTQVTVSS	low polyreactivity
QVQLVESGGGLVQAGGSLRLSCAASGIIFVYNAMGWYRQAPGKERELVAVISFIGDSTYYADSVKGRFTISRDNAKNTVYLQMNSLKPEDTAVYYCAADYYLPYWFFVGYDYWGQGTQVTVSS	low polyreactivity

Sequence	polyreactivity (PSR sort gate)
QVQLVESGGGLVQAGGSLRLSCAASGIIFWAYALGWYRQAPGKERELVAVISRGGSTNYADSVKGRFTISRDNAKNTVYLQMNSLKPEDTAVYYCAARYGWGQGTQVTVSS	high polyreactivity
QVQLVESGGGLVQAGGSLRLSCAASGIIFWAYAMGWYRQAPGKERELVAVISRGGSTNYADSVKGRFTISRDNAKNTVYLQMNSLKPEDTAVYYCAARYGWGQGTQVTVSS	high polyreactivity
QVQLVESGGGLVQAGGSLRLSCAASGIIFWDNAMGWYRQAPGQDRELVASINYSGGSTYYADSVKGRFTISRDNAKNTVYLQMNSLKPEDTAVYDCAARTVTLDDWDYAYDYWGQGTQVTVSS	low polyreactivity
QVQLVESGGGLVQAGGSLRLSCAASGIIFWRYAMGWYRQAPGKERELVAAISSSGSTYYADSVKGRFTISRDNAKNTVYLQMNSLKPEDTAVYYCAAYSYPAGEYDYWGQGTQVTVSS	low polyreactivity
QVQLVESGGGLVQAGGSLRLSCAASGIIFWRYAMGWYRQAPGKERELVAGITSRGGSTYYADSVKGRFTISRDNAKNTVYLQMNSLKPEDTAVYYCNADWYGQLWWGVDYWGQGTQVTVSS	high polyreactivity
QVQLVESGGGLVQAGGSLRLSCAASGIIFWWYAMGWYRQAPGKERELVAAISGTGGSTYYADSVKGRFTISRDNAKNTVYFQMNSLKPEDTAVYYCAARGKSSSYYDYDYWGQGTQVTVSS	low polyreactivity
QVQLVESGGGLVQAGGSLRLSCAASGIIFWYNAMGWYRQAPGKERELVASISTGGRTYYADSVKGRFTISRDNAKYTVYLQMNSLKPEDTAVYYCAAASRVGFLYYYWGQGTQVTVSS	low polyreactivity
QVQLVESGGGLVQAGGSLRLSCAASGIIFWYYAMVWYRHAPGKERELVASISGTGGTTYYADSVKGRFTISRDNAKNTVYLQMNSLKPEDTAVYDCSALSGQHDYDYWGQGTQVTVSS	low polyreactivity
QVQLVESGGGLVQAGGSLRLSCAASGIIFYANAMGWYRQAPGKERELVAAISWSGSSTYYADSVKGRFTISRDNAKNTVYLQMNSLKPEDTAVYYCNKATSSVRYLKYYYWGQGTQVTVSS	high polyreactivity
QVQLVESGGGLVQAGGSLRLSCAASGIIFYAYAMGWYRQAPGKEREFVAAINNSGGRTYYADSVKGRFTISRDNAKNTVYLQMNSLKPEDTAVYYCAVYSYYRRTYRREMDYWGQGTQVTVSS	high polyreactivity
QVQLVESGGGLVQAGGSLRLSCAASGIIFYAYDMGWYRQAPGKERELVAAITFSAVSTYYADSVKGRFTISRDNAKNTVYLQMNSLKPEDTAVYYCAAEAYKHGVWDYDYWGQGTQVTVSS	low polyreactivity
QVQLVESGGGLVQAGGSLRLSCAASGIIFYEYTMGWYRQAPGKERELVARISLRGGNTYYADSVKGRFTISRDNAKNTVYLQMNSLKPEDTAVYYCNADLYRQYASRYHYWGQGTQVTVSS	high polyreactivity
QVQLVESGGGLVQAGGSLRLSCAASGIIFYEYVMGWYRQAPGKERELVAAINRSGGSTYYADSVKGRFTISRDNAKNTVYLQMNSLKPEDTAVYYCAASSTYDGRKYYYWGQGTQVTVSS	high polyreactivity
QVQLVESGGGLVQAGGSLRLSCAASGIIFYGNAMGWYRQAPGKERELVAAISWSGSSTYYADSVKGRFTISRDNAKNTVYLQMNSLKPEDTAVYYCNKATSSVRYLKYYYWGQGTQVTVSS	high polyreactivity
QVQLVESGGGLVQAGGSLRLSCAASGIIFYGNAMGWYRQAPGKERELVAAITWSGGSTYYADSVKGRFTISRDNAKNTVYLQLTSLKPEDTAVYYCAADFLYGFYYWGQGTQVTVSS	low polyreactivity
QVQLVESGGGLVQAGGSLRLSCAASGIIFYGYAMGWYRQAPGKERELVAAISSGGGTNYADSVKGRFTISRDNAKNTVYLQMNSLKPEDTAVYYCAAGGKKRDDYWGQGTQVTVSS	high polyreactivity
